From patent publication US20100222256A1

Molecular target: CXCR4 ligand
Assay: cell-based or functional assay

T140 (peptide)
EC50 (nM): anti-HIV activity, concentration where MT-4 cell death by HIV-1 (IIIB) infection is inhibited by 50% (MTT method): 3.3 nM
